{"source": "patent US20220233667A1", "about": "(OXFORD UNIVERSITY INNOVATION, published 2022)", "binders": {"B1": {"name": "R5.016 (antibody, V domains shown)", "VH": "QVQLVQSGAEVKKPGASVRVSCKASGYTFTSYGISWVRQAPGQGLEWMGWISGYDGNTNYAQKLQGRVTMTTDTSTSTAYMELRSLRSDDTAVYYCARDGPQVGDFDWQVYYYYGMDVWGQGTTVTVSS", "VL": "AIRMTQSPSTLSASVGDRVTITCRASQSINTWLAWYQQKPGKAPNLLISKASSLESGVPSRFSGSGSGTEFTLTISSLQPDDFATYFCQQYNSYLYTFGQGTKVEIRR", "notes": "also called mAb16"}, "B2": {"name": "R5.010 (antibody, V domains shown)", "VH": "EVQLVESGGGLVQPGGSLRLSCAASGFTFSSYWMSWVRQAPGKGLEWVANIKQDGSEKYYVDSVKGRFTISGDNAKNSLYLQMNSLRAEDTAVYYCARGASGYYYYNYGMDVWGQGTRVTVSS", "VL": "QPVLTQPPSVSVAPGQTARITCGGNNIGIKSVHWYQQKPGQAPVLVVYDDSDRPSGIPERFSGSNSANTATLTISRVEAGDEADYFCQVWDSSSDHPGVFGGGTKLTVLG", "notes": "also called mAb10"}, "B3": {"name": "R5.011 (antibody, V domains shown)", "VH": "EVQLVQSGSDLKKPGASVKVSCKASGYTFTSYAMNWVRQAPGQGLEWVGWINTNTGNPTYAQGFTGRFVFSLDTSVSTAYLQISSLKAEDTAVYYCARESPNYYDSSGYYSGYYFDYWGQGTLVTVSS", "VL": "SYELTQPPSVSVAPGQTATITCGGKNIGSKSVHWYQQKPGQAPVLVVYDDSDRPSGIPERFSGSNSGNTATLTISRVEAGDEADYYCQVWDSSSDHRVFGGGTKLTVLG", "notes": "also called mAb11"}, "B4": {"name": "R5.014 (antibody, V domains shown)", "VH": "EVQLVESGGGLVQPGRSLRLSCAASGFTFDDYAMHWVRQAPGKGLEWVSGISWNSASMDYADSVKGRFTISRDNAKNSLYLQMNSLRAEDTALYYCAKDPAPPYCGGDCYPSFDYWGQGTLVTVSS", "VL": "B3 VL with V10M, Q16K, T19R, K25N, V47I, D49Y, S94R, R97V", "notes": "also called mAb14"}}, "note": "Changes are numbered by the printed parent chain."}
{"biological_target": "T1, PfRH5Nt: amino acids F25-K140 of PfRH5 (3D7) with C-terminal CD4d3+4, biotin acceptor peptide and His6 tags (Plasmodium falciparum (3D7))", "T1 construct": "also called recombinant PfRH5Nt", "T1 chain": "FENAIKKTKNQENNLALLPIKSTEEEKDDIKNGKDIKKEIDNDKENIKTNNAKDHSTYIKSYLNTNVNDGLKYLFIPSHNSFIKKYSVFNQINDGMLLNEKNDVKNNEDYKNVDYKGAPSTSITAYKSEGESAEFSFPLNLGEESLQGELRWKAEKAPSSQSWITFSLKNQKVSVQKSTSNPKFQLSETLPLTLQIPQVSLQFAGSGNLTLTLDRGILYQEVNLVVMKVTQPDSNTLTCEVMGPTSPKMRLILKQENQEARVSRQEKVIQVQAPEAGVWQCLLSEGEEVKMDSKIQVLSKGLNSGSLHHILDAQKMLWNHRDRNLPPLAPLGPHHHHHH", "assay": "ELISA on coated PfRH5Nt"}
{"binder": "B1", "binding result": "no binding (tested: 1000 ng/mL mAb)"}
{"binder": "B2", "binding result": "no binding (tested: 1000 ng/mL mAb)"}
{"binder": "B3", "binding result": "no binding (tested: 1000 ng/mL mAb)"}
{"binder": "B4", "binding result": "no binding (tested: 1000 ng/mL mAb)"}
